The nature of the data set: label from the status in PepcDB records.

The results in this text go back to a protein production outcome set (Wang et al. 2014).

For the sequence “MASAMLATLELDYFRAVSLYRRRSYERCAELCNALLQAGHDGHVQLFTTKEEEEEEQHQQQQAEHSRFGSNLQRIGPRPRGAAGGGAGAVDSGPSIMMPTWLMEGVWQLKMRALTQRVYVDDLDEDDGGNEATEEVEFERIATAARPGSSIKTAFQPRPLTSQRAQQARSRGAGVAHSSDGRLNSSRPGSAAVARPGTSLSRPGSSLGSRCGTASRIRATSAAAFNVGDATSKLYQASRLNPTIYAERETLVKALFQFLYYHEADVQKAHSLCQAVLEVERQKPSGSTGCTLSWWWQQQMGRCLLALHYPRRAEPFLQQSLTSFPHPDTYLLLSRVYQRIKQPERALLVIGEVVDSRPFDVTYRLEQARIHQAMEQQEDALQLYRLAAKLHPINVESLASIAVGYFYDNNPEMALMYYRRILSLGAQSPELYCNIALCCLYGGQIDLVLPCFQRALATATQPGQKSDIWYNLSFVAVTSGDFNLAKRCLQLCLTSDAQNGAALNNLAVLAAQSGDILGAKSYLNAAKDVMPDAAEVTTNLQFMDVHYKL”, the protein production result is “failed”.
The value for “MASEDKFESVLSTRYCKNSPLVSILSETNKATLWRQLWIWLAEAEKELGLKQVTQDAIDEMKSNRDVFDWPFIRSEERKLKHDVMAHNHAFGKLCPTAAGIIHLGATSCFVQDNADLIAYRDSIDHILKRFATVIDRLAAFSLKNKEVVTVGRTHYQTASLVTVGKRGVLWAQELLMAFQSLSEFRDKMRFRGIKGATGTQDSFLTLFAGDESKVEALDELVTKKANFSNRFLITGQTYSRQQDSQLVFSLSLLGAAAKKVCTDIRVLQAFGELLEPFEKDQIGSSAMPYKKNPMKSERCCALSRKLINAPQEALTILADQGLERTLDDSAGRRMLIPDVLLTAEALLTTLQNIFEGLSVQTDNVKKIVEDEIAFLGLEKAMMMLTEEGVDRQQAHAVIRKTALEAKQLQATQKVDIRQTMADPFFDSVRDRVVGLVNNPINFTGRCVSQTESFIAKELKPTIDKYLDKSAGNVQLDV” was “not failed”; that for “MASEVVRDSLWRYFAEFVGTFILMLFGDGAVVASLVTNGTSPGYGFIMISWGFGVVLAIYAVGPISGAHINPNVTLAFAVTKRMKWRDVIPYILFQTLGAAAAAGILLAWWGSIITKMDPPPTLYAQVGASFFTEYPNPSFWGQYWPKELLLPNSASGTSLFSEVNQVFPLWIGAFAELLMTFLLLLIVLAVTDTDSPFFNQSLAPWAIGIGYVMPFLLFEAQLTGGMINEARSWGPMLALYLFGYRTGAFNFRGQYFFVYGIPDFIGGILGALFWDYVLKPYLKYLKSNNKK” was “failed”; that for “MASFPPRVNEKEIVRSRTIGELLAPAAPFDKKCGGENWTVAFAPDGSYFAWSQGYRIVKLVPWSQCLKNFLLHGSKNVTNSSCLKLARQNSNGGQKNKPREHIIDCGDIVWSLAFGSSVPEKQSRCVNIEWHRFRFGQDQLLLATGLNNGRIKIWDVYTGKLLLNLVDHIEVVRDLTFAPDGSLLLVSASRDKTLRVWDLKDDGNMVKVLRGHQNWVYSCAFSPDCSMLCSVGASKAVFLWNMDKYTMIRRLEGHHHDVVACDFSPDGALLATASYDTRVYVWDPHIGDTLMEFGHLFPPPTPIFAGGANDRWVRAVSFSHDGLHVASLADDKMVRFWSIGDDCPVQVAPLSNGLCCAFSTDGSVLAAGTHDGSVYFWATPRQVSSLQHLCRMSIRRVMPTQEVQKLPVPSKMLEFLSYRV” was “failed”.
The value for “MASGQGPGPPRQECGEPALPSASEEQVAQDTEEVFRSYVFYRHQQEQEAEGVAAPADPEMVTLPLQPSSTMGQVGRQLAIIGDDINRRYDSEFQTMLQHLQPTAENAYEYFTKIATSLFESGINWGRVVALLGFGYRLALHVYQHGLTGFLGQVTRFVVDFMLHHCIARWIAQRGGWVAALNLGNGPILNVLVVLGVVLLGQFVVRRFFKS” was “not failed”; that for “MASLSQLSSHLNYTCGAENSTGASQARPHAYYALSYCALILAIVFGNGLLCMAVLKERALQTTTNYLVVSLAVADLLVATLVMPWVVYLEVTGGVWNFSICCDVFVTLDVMMCTASILNLCAISIDRYTAVVMPVHYQHGTGQSSCRRVALMITAVWVLAFAVSCPLLFGFNTTGNPTVCSISNPDFVIYSSVVSFYLPFGVTVLVYARIYVVLKQRRRKRILTRQNSQCNSVRPGFPQQTLSPDPAHLELKRYYSICQDTALGGPGFQERGGELKREEKTRNSLSPTIAPKLSLEVRKLSNGRLSTSLKLGPLQPRGVPLREKKATQMVAIVLGTFIVCWLPFFLTHVLNTHCQTCHVSPELYSATTWLGYVNSALNPVIYTTFNIEFRKAFLKILSC” was “not failed”.
Regarding “MASNMDREMILADFQACTGIENIDEAITLLEQNNWDLVAAINGVIPQENGILQSEYGGETIPGPAFNPASHPASAPTSSSSSAFRPVMPSRQIVERQPRMLDFRVEYRDRNVDVVLEDTCTVGEIKQILENELQIPVSKMLLKGWKTGDVEDSTVLKSLHLPKNNSLYVLTPDLPPPSSSSHAGALQESLNQNFMLIITHREVQREYNLNFSGSSTIQEVKRNVYDLTSIPVRHQLWEGWPTSATDDSMCLAESGLSYPCHRLTVGRRSSPAQTREQSEEQITDVHMVSDSDGDDFEDATEFGVDDGEVFGMASSALRKSPMMPENAENEGDALLQFTAEFSSRYGDCHPVFFIGSLEAAFQEAFYVKARDRKLLAIYLHHDESVLTNVFCSQMLCAESIVSYLSQNFITWAWDLTKDSNRARFLTMCNRHFGSVVAQTIRTQKTDQFPLFLIIMGKRSSNEVLNVIQGNTTVDELMMRLMAAMEIFTAQQQEDIKDEDEREARENVKREQDEAYRLSLEADRAKREAHEREMAEQFRLEQIRKEQEEEREAIRLSLEQALPPEPKEENAEPVSKLRIRTPSGEFLERRFLASNKLQIVFDFVASKGFPWDEYKLLSTFPRRDVTQLDPNKSLLEVKLFPQETLFLEAKE”, the protein production entry is given as “not failed”.
Regarding “MASNSSSCPTPGGGHLNGYPVPPYAFFFPPMLGGLSPPGALTTLQHQLPVSGYSTPSPATIETQSSSSEEIVPSPPSPPPLPRIYKPCFVCQDKSSGYHYGVSACEGCKGFFRRSIQKNMVYTCHRDKNCIINKVTRNRCQYCRLQKCFEVGMSKESVRNDRNKKKKEVPKPECSESYTLTPEVGELIEKVRKAHQETFPALCQLGKYTTNNSSEQRVSLDIDLWDKFSELSTKCIIKTVEFAKQLPGFTTLTIADQITLLKAACLDILILRICTRYTPEQDTMTFSDGLTLNRTQMHNAGFGPLTDLVFAFANQLLPLEMDDAETGLLSAICLICGDRQDLEQPDRVDMLQEPLLEALKVYVRKRRPSRPHMFPKMLMKITDLRSISAKGAERVITLKMEIPGSMPPLIQEMLENSEGLDTLSGQPGGGGRDGGGLAPPPGSCSPSLSPSSNRSSPATHSP”, the protein production entry is on record as “not failed”.
As for “MASQITGSFTSLTKLITAGSYLAGLGFSIGAIMKFKQHKDNPTQIPIGTPIALIFIAAALLFLPSILGVAGVTMFGGSGGKTAGPTGTIYKTN”, the protein production entry is “failed”.
The value for “MASRFSRVVLVLIDALRFDFAQPQHSHVPREPPVSLPFLGKLSSLQRILEIQPHHARLYRSQVDPPTTTMQRLKALTTGSLPTFIDAGSNFASHAIVEDNLIKQLTSAGRRVVFMGDDTWKDLFPGAFSKAFFFPSFNVRDLDTVDNGILEHLYPTMDSGEWDVLIAHFLGVDHCGHKHGPHHPEMAKKLSQMDQVIQGLVERLENDTLLVVAGDHGMTTNGDHGGDSELEVSAALFLYSPTAVFPSTPPEEPEVIPQVSLVPTLALLLGLPIPFGNIGEVMAELFSGGEDSQPHSSALAQASALHLNAQQVSRFLHTYSAATQDLQAKELHQLQNLFSKASADYQWLLQSPRAEATLPTVIAELQQFLRGARAMCIESWARFSLVRMAGGTALLAASCFICLLASQWAISPGFPFCPLLLTPVAWGLVGAIAYAGLLGTIELKLDLVLLGAVAAVSSFLPFLWKAWAGWGSKRPLATLFPIPGPVLLLLLFRLAVFFSDSFVVAEARATPFLLGSFILLLVVQLHWEGQLLPPKLLTMPRLGTSATTNPPRHNGAYALRLGIGLLLCTRLAGLFHRCPEETPVCHSSPWLSPLASMVGGRAKNLWYGACVAALVALLAAVRLWLRRYGNLKSPEPPMLFVRWGLPLMALGTAAYWALASGADEAPPRLRVLVSGASMVLPRAVAGLAASGLALLLWKPVTVLVKAGAGAPRTRTVLTPFSGPPTSQADLDYVVPQIYRHMQEEFRGRLERTKSQGPLTVAAYQLGSVYSAAMVTALTLLAFPLLLLHAERISLVFLLLFLQSFLLLHLLAAGIPVTTPGPFTVPWQAVSAWALMATQTFYSTGHQPVFPAIHWHAAFVGFPEGHGSCTWLPALLVGANTFASHLLFAVGCPLLLLWPFLCESQGLRKRQQPPGNEADARVRPEEEEEPLMEMRLRDAPQHFYAALLQLGLKYLFILGIQILACALAASILRRHLMVWKVFAPKFIFEAVGFIVSSVGLLLGIALVMRVDGAVSSWFRQLFLAQQR” was “failed”; that for “MASRSDSAALSRDVPGAAFCGSRDMQKKHLFLALLVTALWGLNFPITKLGLASIDPLLLTALRFTLAALPWVFLVPRPPVAFAWLAAYGLIFGVAMWALINLGIDHGVAPGTAALLIQFSAFFSLGWGVLLFGERLRLQQVLATAIALWGLLRIIGDSPGHATSLGYALLLVSAFSWSVGNVIIKRCGVREVFAFVVWASLFAPLPLLALTWISHGAAPFLQLAGQVSAGAALSLMFQVYAATLFCYWGWNLLLREYPVSRVAPLSLLIPVFGMAGSVLILGQRLGAEEGISMGLILLALAVGQFDWRRLITLGRRSL” was “failed”.
“MASSFLEEVDRLITLSGITFHASGTGTPELIKIYQDALGNEFPETYKLFLEKYGTLTFNGVSFYGISKRGLSAASIPDVKFATEQARTFGDINKEMIMIKNSGYGSIFSIDTSIIGSEGEPVIVETNLSFKDNTEKKVVANSFGEFLLEEIELSLTDLG”: the protein production entry was “not failed”.
The value for “MASSSKNITYPPRLYPEGLLKSSLCVFIKFADAKYIWAAHTVHYFLTNQLSVNNFHEIMSVIDGWPIRFSLTEFVDITSLNCDLLDKSTTCEIGHYEFWNEMGVGTYDGPLFIELKHVMDISKEWSYEKRLMVGRLCLLSVGVHGIYHGCRIPLSSAKLVLDPKAFEKYLWGRVAFESLVISVKIVDYKKDICDSWMCPRLVDLDL” was “failed”.
The same measure for “MASSSSLSLSFPSSSLSRTWDYDVFPSFHGEDVRKAFLSQILKKEFGRKAINFFVDHEMERGEFIGPVLKQAIKGSKIALVLLSKNYASSWCCLDELVEIMKKESGQTVITIFYEVDPNEVKKQTGDFGKAFKETCQGKTEEKVQTWRKALEGVGLATIAGFHSSNWFVFFI”: “not failed”; for “MASSSSTYRSSSSSDGGNNNPSDSVVTVDERKRKRMLSNRESARRSRMRKQKHVDDLTAQINQLSNDNRQILNSLTVTSQLYMKIQAENSVLTAQMEELSTRLQSLNEIVDLVQSNGAGFGVDQIDGCGFDDRTVGIDGYYDDMNMMSNVNHWGGSVYTNQPIMANDINMY”: “failed”; for “MASSYTLMLFLCLSIFLIASTEMMAVEGRICERRSKTWTGFCGNTRGCDSQCKRWERASHGACHAQGFPVSGIPSALPTVTHAKQREKMSAMGAYGITYFVGSIIGLLFVQGFEPEKGTLFKEQKGGVSKIDPKP”: “failed”.
The same measure for “MASTAVSELVFFIVTLLITASAVAVLSDQTIHIVYGMQSSSQRTTDMIQENFAIINNPDQIPYDNGYVFYIKNTGSVGFAFDNTSISVLVDGSAVTGKYVKFISLENSSILVPGQVGEIVVNETLSGYNSITISLGTGVSHTFNFEV”: “failed”; for “MASYYEILDVPRSASADDIKKAYRRKALQWHPDKNPDNKEFAEKKFKEVAEAYEVLSDKHKREIYDRYGREGLTGTGTGPSRAEAGSGGPGFTFTFRSPEEVFREFFGSGDPFAELFDDLGPFSELQNRGSRHSGPFFTFSSSFPGHSDFSSSSFSFSPGAGAFRSVSTSTTFVQGRRITTRRIMENGQERVEVEEDGQLKSVTINGVPDDLALGLELSRREQQPSVTSRSGGTQVQQTPASCPLDSDLSEDEDLQLAMAYSLSEMEAAGKKPAGGREAQHRRQGRPKAQHQDPGLGGTQEGARGEATKRSPSPEEKASRCLIL”: “not failed”.
